Experimental data as given in patent publication US20100080800A1.

Molecular target: Aβ13-21 peptide (peptide 13)
Experiment: ELISA, biotinylated peptide (Mimotopes protocol)

## Control IgG (antibody)
  O.D: 0.171 O.D
